PMC2849977 (Nature structural & molecular biology, 2009)

Biological target: PHF8 (Homo sapiens, UniProt Q9UPP1)
Assay: PHF8 demethylation time course
Type: biochemical
Details: equimolar ratio added

Chain of PHF8 (Q9UPP1 37-483): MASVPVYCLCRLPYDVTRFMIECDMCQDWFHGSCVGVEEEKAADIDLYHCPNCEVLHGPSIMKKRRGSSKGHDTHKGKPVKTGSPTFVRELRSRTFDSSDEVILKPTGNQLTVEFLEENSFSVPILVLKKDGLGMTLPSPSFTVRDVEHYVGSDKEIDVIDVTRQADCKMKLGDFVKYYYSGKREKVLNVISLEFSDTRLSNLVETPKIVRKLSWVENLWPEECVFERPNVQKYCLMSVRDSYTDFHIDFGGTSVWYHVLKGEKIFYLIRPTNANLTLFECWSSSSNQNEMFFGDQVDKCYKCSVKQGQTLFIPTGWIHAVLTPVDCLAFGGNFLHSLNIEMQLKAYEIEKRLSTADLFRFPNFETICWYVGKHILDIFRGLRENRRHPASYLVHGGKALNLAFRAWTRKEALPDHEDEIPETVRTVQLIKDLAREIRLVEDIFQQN

Substance	effect of added peptide in trans on demethylation of H3_1–24K9me2 by PHF8
H3_1–12K4me3: H3K4me3 modification in a short H3_1–12 peptide	inhibitory effect
H3_1–21K4me3: H3K4me3 modification in a long H3_1–21 peptide	inhibitory effect
